Experimental data published in patent US20260207704A1, “STAPLED PEPTIDES AND METHODS THEREOF” (priority 2022, published 2026).
*1 amine or outer side, *2 acyl side, *3 side chain or, on linkers, in order; H or OH if unused. Bridges are numbered along the chain shown (N, C = ends). Primed or numbered codes have the meaning given here. [ ]: non-standard residue; d: D form. The star is where a group is joined. PyrS2(6) = (S)-3-amino-1-((pent-4-en-1-yloxy)carbonyl)pyrrolidine-3-carboxylic acid, stapled with another olefin-containing amino acid residue through the olefin group, O=C(OCCCC=[*:3])N1CC[C@@](N[*:1])(C(=O)[*:2])C1; B5(4) = 2-amino-2-(pent-4-en-1-yl)hept-6-enoic acid, stapled through each of its two olefin groups with other olefin-containing amino acid residues, O=C(C(CCCC=[*:3])(CCCC=[*:4])N[*:1])[*:2]; PyrS2″ = (S)-3-amino-1-((pent-4-en-1-yloxy)carbonyl)pyrrolidine-3-carboxylic acid (olefin stapling residue), C=CCCCOC(=O)N1CC[C@@](N[*:1])(C(=O)[*:2])C1; PyrS2 = (S)-3-amino-1-((pent-4-en-1-yloxy)carbonyl)pyrrolidine-3-carboxylic acid, olefin staple residue, C=CCCCOC(=O)N1CC[C@@](N[*:1])(C(=O)[*:2])C1; PyrS2(3) = (S)-3-amino-1-((pent-4-en-1-yloxy)carbonyl)pyrrolidine-3-carboxylic acid, olefin residue, C=CCCCOC(=O)N1CC[C@@](N[*:1])(C(=O)[*:2])C1; PyrS2(5) = (S)-3-amino-1-((pent-4-en-1-yloxy)carbonyl)pyrrolidine-3-carboxylic acid, C=CCCCOC(=O)N1CC[C@@](N[*:1])(C(=O)[*:2])C1; B5(5) = 2-amino-2-(pent-4-en-1-yl)hept-6-enoic acid (two olefin arms), C=CCCCC(CCCC=C)(N[*:1])C(=O)[*:2]; B5(3) = 2-amino-2-(pent-4-en-1-yl)hept-6-enoic acid, two olefin arms, C=CCCCC(CCCC=C)(N[*:1])C(=O)[*:2]; TriAzLys″ = azidolysine residue closed into triazole staple, O=C([C@H](CCCCn1cc([*:3])nn1)N[*:1])[*:2]; Me2Mal = 2-carboxy-2-methylpropanoyl group on the Lys side chain, CC(C)(C(=O)O)C(=O)*; 2F3MeF″ = aromatic residue, Cc1cccc(C[C@H](N[*:1])C(=O)[*:2])c1F; Phe(3-COOH) = N[C@@H](Cc1cccc(C(=O)O)c1)C(=O)O; 2F3MeF = Cc1cccc(C[C@H](N[*:1])C(=O)[*:2])c1F; Phe(2-Cl) = N[C@@H](Cc1ccccc1Cl)C(=O)O; Bta = N[C@@H](Cc1csc2ccccc12)C(=O)O; αAllylPro = C=CC[C@@]1(C(=O)O)CCCN1; BztA = aromatic amino acid residue; tBuAla = CC(C)(C)C[C@H](N)C(=O)O; 3Thi = N[C@@H](Cc1ccsc1)C(=O)O; Suc = O=C(CCC(=O)[*:2])[*:1]; 2F3MeF(4) = Phe analogue; Nle = CCCC[C@H](N)C(=O)O; Orn = NCCC[C@H](N)C(=O)O; TfeGA = not defined here; AsnR = not defined here; GlnR = not defined here; sAla = not defined here; PL3 = not defined here; B5 = not defined here; Aib = CC(C)(N)C(=O)O

Target: beta-catenin (human)
Test: cell-based or functional assay

beta-catenin (human), sequence (B6V8E6 146-665 limits assumed): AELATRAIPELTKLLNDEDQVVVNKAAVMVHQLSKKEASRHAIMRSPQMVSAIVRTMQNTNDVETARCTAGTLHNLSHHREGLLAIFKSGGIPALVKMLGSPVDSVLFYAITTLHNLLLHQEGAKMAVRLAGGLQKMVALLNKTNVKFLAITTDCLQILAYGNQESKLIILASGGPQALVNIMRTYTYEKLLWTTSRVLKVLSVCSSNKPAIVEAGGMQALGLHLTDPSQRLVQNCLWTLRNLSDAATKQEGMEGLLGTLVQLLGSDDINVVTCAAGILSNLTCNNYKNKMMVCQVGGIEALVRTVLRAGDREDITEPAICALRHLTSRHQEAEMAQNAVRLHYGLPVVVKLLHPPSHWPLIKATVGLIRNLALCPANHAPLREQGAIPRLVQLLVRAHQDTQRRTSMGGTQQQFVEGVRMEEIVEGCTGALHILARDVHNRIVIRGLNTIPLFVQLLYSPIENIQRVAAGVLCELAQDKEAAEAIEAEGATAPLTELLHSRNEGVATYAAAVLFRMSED

Row | NanoBRET Abs IC50 (bin >3.0 uM) | NanoBRET Abs IC50 | Binder
1 | < 10000 nM |  | Ac-[αAllylPro]DL[B5(4)]DDAAFK[PyrS2(6)][3Thi][Bta][GlnR]-NH2 (bridge 10-14; not fully specified (bridges); printed as Ac-PL3-Asp-Leu-B5-Asp-Asp-Ala-Ala-Phe-Lys*3-PyrS2-3Thi-BztA-GlnR*3-NH2; reading uncertain) [I-3]
2 |  | > 10000 nM | Ac-[αAllylPro]D[tBuAla][B5(4)]D[TfeGA]LAFK[PyrS2″][2F3MeF][Bta][GlnR]A-NH2 (bridge 10-14; not fully specified (bridges); reading uncertain; also: Lys*3 and GlnR*3 marked *3) [I-122]
3 |  | > 10000 nM | Ac-[αAllylPro]D[tBuAla][B5(4)]D[TfeGA]VAFK[PyrS2″][2F3MeF][Bta][GlnR]A-NH2 (bridge 10-14; not fully specified (bridges); reading uncertain; also: Lys*3 and GlnR*3 marked *3) [I-125]
4 |  | > 10000 nM | Ac-[αAllylPro]D[tBuAla][B5(4)]D[TfeGA]VAFK[PyrS2″][2F3MeF][Bta][GlnR]A-NH2 (bridge 10-14; not fully specified (bridges); reading uncertain; also: Lys*3 and GlnR*3 marked *3) [I-124]

Target: beta-catenin (human)
Test: fluorescence polarization

Row | IC50 | Binder
5 | < 50 nM | Ac-[αAllylPro]D[tBuAla][B5(5)]D[Phe(3-COOH)]KAFL[PyrS2(5)][3Thi][Bta]K-NH2 (not fully specified (residues 6, 7, bridges); printed as Ac-PL3-Asp-Npg-B5-Asp-3COOHF-[Me2Mal]-Lys-Ala-Phe-Leu-PyrS2-3Thi-BztA-Lys-NH2) [I-47]
6 | < 50 nM | Ac-[αAllylPro]D[tBuAla][B5(5)]D[Phe(3-COOH)]KAFL[PyrS2(5)][3Thi][Bta]K-NH2 (not fully specified (residues 6, 7, bridges); printed as Ac-PL3-Asp-Npg-B5-Asp-3COOHF-[succinate]-Lys-Ala-Phe-Leu-PyrS2-3Thi-BztA-Lys-NH2) [I-46]
7 | < 50 nM | Ac-[PL3]N[tBuAla][B5]D[Phe(3-COOH)]QAFK[PyrS2″][3Thi][BztA][GlnR]A-NH2 (staple 1-4 (inferred); bridge 10-14; not fully specified (residue 10, bridges); printed as Ac-PL3-Asn-Npg-B5-Asp-3COOHF-Gln-Ala-Phe-Lys*3-PyrS2-3Thi-BztA-GlnR*3-Ala-NH2; reading uncertain; also: Lys10 and GlnR14 marked *3) [I-88]
8 | < 50 nM | Ac-[αAllylPro]N[tBuAla][B5(4)]D[Phe(3-COOH)]AAFK[PyrS2(6)][3Thi][Bta][GlnR]A-NH2 (staple 1-4 (inferred); bridge 10-14; not fully specified (residue 10, bridges); printed as Ac-PL3-Asn-Npg-B5-Asp-3COOHF-Ala-Ala-Phe-Lys*3-PyrS2-3Thi-BztA-GlnR*3-Ala-NH2; reading uncertain) [I-80]
9 | < 50 nM | Ac-[PL3]N[tBuAla][B5]D[Phe(3-COOH)]SAFK[PyrS2″][3Thi][BztA][GlnR]A-NH2 (staple 1-4 (inferred); bridge 10-14; not fully specified (residue 10, bridges); printed as Ac-PL3-Asn-Npg-B5-Asp-3COOHF-Ser-Ala-Phe-Lys*3-PyrS2-3Thi-BztA-GlnR*3-Ala-NH2; reading uncertain) [I-84]
10 | < 50 nM | Ac-[αAllylPro]DL[B5(4)]DDAAFK[PyrS2(6)][3Thi][Bta][GlnR]-NH2 (bridge 10-14; not fully specified (bridges); printed as Ac-PL3-Asp-Leu-B5-Asp-Asp-Ala-Ala-Phe-Lys*3-PyrS2-3Thi-BztA-GlnR*3-NH2; reading uncertain) [I-3]
11 | < 50 nM | Ac-[PL3]D[tBuAla][B5(4)]D[Phe(3-COOH)]AAF[TriAzLys″][PyrS2″][2F3MeF][Bta][sAla]-NH2 (triazole 10-14; not fully specified (bridges); printed as Ac-PL3-Asp-Npg-B5-Asp-3COOHF-Ala-Ala-Phe-TriAzLys*3-PyrS2-2F3MeF-BztA-sAla*3-NH2; reading uncertain) [I-22]
12 | < 50 nM | Ac-[PL3]D[tBuAla][B5(4)]D[Phe(3-COOH)]AAF[TriAzLys″][PyrS2″][3Thi][Bta][sAla]-NH2 (triazole 10-14; not fully specified (bridges); printed as Ac-PL3-Asp-Npg-B5-Asp-3COOHF-Ala-Ala-Phe-TriAzLys*3-PyrS2-3Thi-BztA-sAla*3-NH2; reading uncertain) [I-20]
13 | < 50 nM | Ac-[αAllylPro]D[tBuAla][B5(3)]D[Phe(3-COOH)][Aib]AFK[PyrS2(3)][2F3MeF″][Bta][GlnR]A-NH2 (bridge 10-14; not fully specified (bridges); printed as Ac-PL3-Asp-Npg-B5-Asp-3COOHF-Aib-Ala-Phe-Lys*3-PyrS2-2F3MeF-BztA-GlnR*3-Ala-NH2; reading uncertain) [I-69]
14 | < 50 nM | Ac-[αAllylPro]D[tBuAla][B5(5)]D[Phe(3-COOH)]KAFL[PyrS2(5)][3Thi][Bta]K-NH2 (not fully specified (residue 6); printed as Ac-PL3-Asp-Npg-B5-Asp-3COOHF-[isophthalate]-Lys-Ala-Phe-Leu-PyrS2-3Thi-BztA-Lys-NH2; also: isophthalate unit next to Lys7, attachment not given here, PL3/B5/PyrS2 staple links not placed) [I-45]
15 | < 50 nM | XDQXDXKAFKXXXQA (not fully specified; Ac-PL3-Asp-GlnR**3-B5-Asp-3COOHF-Lys**3-Ala-Phe-Lys*3-PyrS2-3Thi-BztA-GlnR*3-Ala-NH2) [I-74]
16 | < 50 nM | Ac-[αAllylPro]D[tBuAla][B5]D[Phe(3-COOH)][Aib]AFK[PyrS2][3Thi][Bta][GlnR]A-NH2 (staple 1-4, 4-11; lactam 10-14; not fully specified; printed as Ac-PL3-Asp-Npg-B5-Asp-3COOHF-Aib-Ala-Phe-Lys*3-PyrS2-3Thi-BztA-GlnR*3-Ala-NH2; reading uncertain) [I-67]
17 | > 1000 nM | Ac-[αAllylPro]D[tBuAla][B5(5)]D[Phe(3-COOH)]AAF[AsnR][PyrS2(5)][3Thi][Bta][Orn]-NH2 (bridge 10-14; reading uncertain; also: PL3/B5/PyrS2 staple links not placed, printed as Ac-PL3-Asp-Npg-B5-Asp-3COOHF-Ala-Ala-Phe-AsnR*3-PyrS2-3Thi-BztA-Orn*3-NH2) [I-40]
18 | < 50 nM | Ac-[αAllylPro]D[tBuAla][B5(3)]D[Phe(3-COOH)][Nle]AFK[PyrS2(3)][3Thi][Bta][GlnR]A-NH2 (bridge 10-14; not fully specified (bridges); printed as Ac-PL3-Asp-Npg-B5-Asp-3COOHF-nLeu-Ala-Phe-Lys*3-PyrS2-3Thi-BztA-GlnR*3-Ala-NH2; reading uncertain) [I-70]
19 | < 50 nM | Ac-[αAllylPro]D[tBuAla][B5(4)]D[TfeGA]LAFK[PyrS2″][2F3MeF][Bta][GlnR]A-NH2 (bridge 10-14; not fully specified (bridges); reading uncertain; also: Lys*3 and GlnR*3 marked *3) [I-122]
20 | < 50 nM | Ac-[PL3]D[tBuAla][B5]N[Phe(3-COOH)]AAFK[PyrS2″][3Thi][BztA][GlnR]A-NH2 (staple 1-4 (inferred); bridge 10-14; not fully specified (residue 10, bridges); printed as Ac-PL3-Asp-Npg-B5-Asn-3COOHF-Ala-Ala-Phe-Lys*3-PyrS2-3Thi-BztA-GlnR*3-Ala-NH2; reading uncertain) [I-82]
21 | < 50 nM | Ac-[αAllylPro]D[tBuAla][B5(4)]D[Phe(3-COOH)]K(Suc)AFL[PyrS2(6)][Phe(2-Cl)][Bta]K-NH2 (not fully specified (residue 6, bridges); printed as Ac-PL3-Asp-Npg-B5-Asp-3COOHF-[succinate]-Lys-Ala-Phe-Leu-PyrS2-2ClF-BztA-Lys-NH2) [I-51]
22 | < 50 nM | Ac-[αAllylPro]D[tBuAla][B5(4)]D[Phe(3-COOH)]KAFL[PyrS2(6)][3Thi][Bta]K-NH2 (not fully specified (residues 6, 7, bridges); printed as Ac-PL3-Asp-Npg-B5-Asp-3COOHF-[diphenate]-Lys-Ala-Phe-Leu-PyrS2-3Thi-BztA-Lys-NH2) [I-48]
23 | < 50 nM | Ac-[αAllylPro]D[tBuAla][B5(4)]D[TfeGA]VAFK[PyrS2″][2F3MeF][Bta][GlnR]A-NH2 (bridge 10-14; not fully specified (bridges); reading uncertain; also: Lys*3 and GlnR*3 marked *3) [I-125]
24 | < 50 nM | Ac-[αAllylPro]D[tBuAla][B5(4)]D[Phe(3-COOH)]AAFK[PyrS2(6)][2F3MeF(4)][Bta][GlnR]A-NH2 (staple 1-4 (inferred); bridge 10-14; not fully specified (residue 10, bridges); printed as Ac-PL3-Asp-Npg-B5-Asp-3COOHF-Ala-Ala-Phe-Lys*3-PyrS2-2F3MeF-BztA-GlnR*3-Ala-NH2; reading uncertain; also: -CH=CH- in each staple reduced to -CH2-CH2-) [I-77]
25 | < 50 nM | Ac-[αAllylPro]D[tBuAla][B5(4)]D[TfeGA]VAFK[PyrS2″][2F3MeF][Bta][GlnR]A-NH2 (bridge 10-14; not fully specified (bridges); reading uncertain; also: Lys*3 and GlnR*3 marked *3) [I-124]
26 | < 50 nM | XDQXDXKAFKXXXQA (not fully specified; Ac-PL3-Asp-GlnR**3-B5-Asp-3COOHF-Lys**3-Ala-Phe-Lys*3-PyrS2-3Thi-BztA-GlnR*3-Ala-NH2) [I-78]
27 | < 50 nM | Ac-[αAllylPro]D[tBuAla][B5(3)]D[Phe(3-COOH)]K(Me2Mal)AFL[PyrS2(3)][Phe(2-Cl)][Bta]K-NH2 (not fully specified (residue 6, bridges); printed as Ac-PL3-Asp-Npg-B5-Asp-3COOHF-[Me2Mal]Lys-Ala-Phe-Leu-PyrS2-2ClF-BztA-Lys-NH2) [I-52]
